{"source": "patent US7361741", "proteins": {"B1": {"name": "Human Gastric Lipase (protein)", "chain": "LFGKLHPGSPEVTMNISQMITYWGYPNEEYEVVTEDGYILEVNRIPYGKKNSGNTGQRPVVFLQHGLLASATNWISNLPNNSLAFILADAGYDVWLGNSRGNTWARRNLYYSPDSVEFWAFSFDEMAKYDLPATIDFIVKKTGQKQLHYVGHSQGTTIGFIAFSTNPSLAKRIKTFYALAPVATVKYTKSLINKLRFVPQSLFKFIFGDKIFYPHNFFDQFLATEVCSREMLNLLCSNALFIICGFDSKNFNTSRLDVYLSHNPAGTSVQNMFHWTQAVKSGKFQAYDWGSPVQNRMHYDQSQPPYYNVTAMNVPIAVWNGGKDLLADPQDVGLLLPKLPNLIYHKEIPFYNHLDFIWAMDAPQEVYNDIVSMISEDKK"}}, "target": "enzyme recognising antibody fragments"}
{"protein": "B1", "values": [{"measurement": "enzyme activity assay (DGGR substrate)", "result": "Approximately 30 to 60% of the enzyme recognising antibody fragments showed to inhibit the enzyme"}]}
